The values that follow come from IntAct's records for PubMed 31515488.

Sequences and labels used below:
B1: Programmed cell death 6-interacting protein (Homo sapiens), Q8WUM4 (parent)
chain: MATFISVQLKKTSEVDLAKPLVKFIQQTYPSGGEEQAQYCRAAEELSKLRRAAVGRPLDKHEGALETLLRYYDQICSIEPKFPFSENQICLTFTWKDAFDKGSLFGGSVKLALASLGYEKSCVLFNCAALASQIAAEQNLDNDEGLKIAAKHYQFASGAFLHIKETVLSALSREPTVDISPDTVGTLSLIMLAQAQEVFFLKATRDKMKDAIIAKLANQAADYFGDAFKQCQYKDTLPKEVFPVLAAKHCIMQANAEYHQSILAKQQKKFGEEIARLQHAAELIKTVASRYDEYVNVKDFSDKINRALAAAKKDNDFIYHDRVPDLKDLDPIGKATLVKSTPVNVPISQKFTDLFEKMVPVSVQQSLAAYNQRKADLVNRSIAQMREATTLANGVLASLNLPAAIEDVSGDTVPQSILTKSRSVIEQGGIQTVDQLIKELPELLQRNREILDESLRLLDEEEATDNDLRAKFKERWQRTPSNELYKPLRAEGTNFRTVLDKAVQADGQVKECYQSHRDTIVLLCKPEPELNAAIPSANPAKTMQGSEVVNVLKSLLSNLDEVKKEREGLENDLKSVNFDMTSKFLTALAQDGVINEEALSVTELDRVYGGLTTKVQESLKKQEGLLKNIQVSHQEFSKMKQSNNEANLREEVLKNLATAYDNFVELVANLKEGTKFYNELTEILVRFQNKCSDIVFARKTERDELLKDLQQSIAREPSAPSIPTPAYQSSPAGGHAPTPPTPAPRTMPPTKPQPPARPPPPVLPANRAPSATAPSPVGAGTAAPAPSQTPGSAPPPQAQGPPYPTYPGYPGYCQMPMPMGYNPYAYGQYNMPYPPVYHQSPGQAPYPGPQQPSYPFPQPPQQSYYPQQ
B2: Migration and invasion-inhibitory protein (Homo sapiens), Q5JXC2 (parent)
chain: MVEAEELAQLRLLNLELLRQLWVGQDAVRRSVARAASESSLESSSSYNSETPSTPETSSTSLSTSCPRGRSSVWGPPDACRGDLRDVARSGVASLPPAKCQHQESLGRPRPHSAPSLGTSSLRDPEPSGRLGDPGPQEAQTPRSILAQQSKLSKPRVTFSEESAVPKRSWRLRPYLGYDWIAGSLDTSSSITSQPEAFFSKLQEFRETNKEECICSHPEPQLPGLRESSGSGVEEDHECVYCYRVNRRLFPVPVDPGTPCRLCRTPRDQQGPGTLAQPAHVRVSIPLSILEPPHRYHIHRRKSFDASDTLALPRHCLLGWDIFPPKSEKSSAPRNLDLWSSVSAEAQHQKLSGTSSPFHPASPMQMLPPTPTWSVPQVPRPHVPRQKP
partner: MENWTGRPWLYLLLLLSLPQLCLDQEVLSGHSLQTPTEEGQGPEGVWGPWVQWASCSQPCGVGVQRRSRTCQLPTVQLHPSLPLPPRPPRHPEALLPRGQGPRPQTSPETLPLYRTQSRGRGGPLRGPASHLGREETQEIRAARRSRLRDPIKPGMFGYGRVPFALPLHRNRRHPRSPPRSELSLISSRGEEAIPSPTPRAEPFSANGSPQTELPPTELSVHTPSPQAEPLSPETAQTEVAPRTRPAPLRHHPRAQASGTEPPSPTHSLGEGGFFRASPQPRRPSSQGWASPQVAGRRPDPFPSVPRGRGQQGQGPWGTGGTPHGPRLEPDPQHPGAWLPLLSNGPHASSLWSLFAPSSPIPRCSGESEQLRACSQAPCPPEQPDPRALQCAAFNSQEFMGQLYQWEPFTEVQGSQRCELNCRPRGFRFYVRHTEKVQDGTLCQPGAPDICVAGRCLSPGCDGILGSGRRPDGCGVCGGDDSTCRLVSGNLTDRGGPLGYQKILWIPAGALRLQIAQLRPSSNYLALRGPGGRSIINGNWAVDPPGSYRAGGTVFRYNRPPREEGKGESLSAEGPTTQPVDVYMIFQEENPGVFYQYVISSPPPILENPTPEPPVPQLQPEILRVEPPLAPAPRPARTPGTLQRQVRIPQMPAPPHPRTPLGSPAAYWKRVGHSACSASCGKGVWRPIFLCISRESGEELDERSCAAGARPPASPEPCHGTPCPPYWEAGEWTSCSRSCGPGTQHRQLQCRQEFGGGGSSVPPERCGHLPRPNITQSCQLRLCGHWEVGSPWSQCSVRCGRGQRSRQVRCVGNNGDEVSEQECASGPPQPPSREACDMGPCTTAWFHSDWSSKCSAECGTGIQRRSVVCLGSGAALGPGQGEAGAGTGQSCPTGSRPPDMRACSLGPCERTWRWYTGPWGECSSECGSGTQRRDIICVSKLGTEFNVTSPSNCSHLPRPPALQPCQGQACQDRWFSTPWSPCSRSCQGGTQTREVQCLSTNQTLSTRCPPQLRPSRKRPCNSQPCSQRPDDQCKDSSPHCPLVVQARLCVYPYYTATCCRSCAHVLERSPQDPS
B3: Centrosomal protein of 55 kDa (Homo sapiens), Q53EZ4 (parent)
chain: MSSRSTKDLIKSKWGSKPSNSKSETTLEKLKGEIAHLKTSVDEITSGKGKLTDKERHRLLEKIRVLEAEKEKNAYQLTEKDKEIQRLRDQLKARYSTTTLLEQLEETTREGERREQVLKALSEEKDVLKQQLSAATSRIAELESKTNTLRLSQTVAPNCFNSSINNIHEMEIQLKDALEKNQQWLVYDQQREVYVKGLLAKIFELEKKTETAAHSLPQQTKKPESEGYLQEEKQKCYNDLLASAKKDLEVERQTITQLSFELSEFRRKYEETQKEVHNLNQLLYSQRRADVQHLEDDRHKTEKIQKLREENDIARGKLEEEKKRSEELLSQVQFLYTSLLKQQEEQTRVALLEQQMQACTLDFENEKLDRQHVQHQLHVILKELRKARNQITQLESLKQLHEFAITEPLVTFQGETENREKVAASPKSPTAALNESLVECPKCNIQYPATEHRDLLVHVEYCSK
partner: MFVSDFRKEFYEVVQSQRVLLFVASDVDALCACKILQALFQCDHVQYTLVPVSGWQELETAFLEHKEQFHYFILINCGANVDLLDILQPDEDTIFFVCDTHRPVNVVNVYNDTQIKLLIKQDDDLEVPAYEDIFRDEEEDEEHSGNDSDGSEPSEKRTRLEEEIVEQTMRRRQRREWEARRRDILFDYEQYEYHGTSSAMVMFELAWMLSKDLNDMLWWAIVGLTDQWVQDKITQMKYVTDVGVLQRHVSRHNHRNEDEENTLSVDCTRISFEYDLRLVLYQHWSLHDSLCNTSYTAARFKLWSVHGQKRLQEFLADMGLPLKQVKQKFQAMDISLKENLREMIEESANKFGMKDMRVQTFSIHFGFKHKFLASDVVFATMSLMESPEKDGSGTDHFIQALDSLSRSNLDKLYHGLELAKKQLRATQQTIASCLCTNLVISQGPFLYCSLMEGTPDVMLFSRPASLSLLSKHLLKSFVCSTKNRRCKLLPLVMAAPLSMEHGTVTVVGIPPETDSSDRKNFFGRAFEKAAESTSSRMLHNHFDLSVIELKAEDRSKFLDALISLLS
B4: Ropporin-1A (Homo sapiens), Q9HAT0 (parent)
chain: MAQTDKPTCIPPELPKMLKEFAKAAIRVQPQDLIQWAADYFEALSRGETPPVRERSERVALCNRAELTPELLKILHSQVAGRLIIRAEELAQMWKVVNLPTDLFNSVMNVGRFTEEIEWLKFLALACSALGVTITKTLKIVCEVLSCDHNGGSPRIPFSTFQFLYTYIAKVDGEISASHVSRMLNYMEQEVIGPDGIITVNDFTQNPRVQLE
partner: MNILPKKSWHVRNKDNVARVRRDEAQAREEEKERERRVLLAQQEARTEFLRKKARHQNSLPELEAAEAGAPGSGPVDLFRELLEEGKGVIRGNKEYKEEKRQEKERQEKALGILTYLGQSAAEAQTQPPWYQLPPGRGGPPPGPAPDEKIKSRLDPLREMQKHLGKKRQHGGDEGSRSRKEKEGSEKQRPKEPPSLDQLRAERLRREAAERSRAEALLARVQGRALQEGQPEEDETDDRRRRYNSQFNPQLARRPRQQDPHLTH
B5: Glycodelin (Homo sapiens), P09466 (parent)
chain: MLCLLLTLGVALVCGVPAMDIPQTKQDLELPKLAGTWHSMAMATNNISLMATLKAPLRVHITSLLPTPEDNLEIVLHRWENNSCVEKKVLGEKTENPKKFKINYTVANEATLLDTDYDNFLFLCLQDTTTPIQSMMCQYLARVLVEDDEIMQGFIRAFRPLPRHLWYLLDLKQMEEPCRF
partner: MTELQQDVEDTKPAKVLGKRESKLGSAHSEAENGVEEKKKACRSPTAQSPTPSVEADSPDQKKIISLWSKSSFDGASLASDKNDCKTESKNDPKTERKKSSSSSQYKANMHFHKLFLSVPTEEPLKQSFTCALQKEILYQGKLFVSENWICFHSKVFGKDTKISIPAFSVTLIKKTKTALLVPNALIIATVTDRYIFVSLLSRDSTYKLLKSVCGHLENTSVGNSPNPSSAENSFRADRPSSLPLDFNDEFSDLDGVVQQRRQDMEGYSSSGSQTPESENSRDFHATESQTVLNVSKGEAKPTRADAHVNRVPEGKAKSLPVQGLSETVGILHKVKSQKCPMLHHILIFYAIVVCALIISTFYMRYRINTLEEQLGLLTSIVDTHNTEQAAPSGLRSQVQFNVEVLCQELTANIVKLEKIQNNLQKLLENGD
B6: Notch homolog 2 N-terminal-like protein A (Homo sapiens), Q7Z3S9 (parent)
chain: MCVTYHNGTGYCKCPEGFLGEYCQHRDPCEKNRCQNGGTCVAQAMLGKATCRCASGFTGEDCQYSTSHPCFVSRPCLNGGTCHMLSRDTYECTCQVGFTGKECQWTDACLSHPCANGSTCTTVANQFSCKCLTGFTGQKCETDVNECDIPGHCQHGGTCLNLPGSYQCQCLQGFTGQYCDSLYVPCAPSPCVNGGTCRQTGDFTFECNCLPETVRRGTELWERDREVWNGKEHDEN
partner: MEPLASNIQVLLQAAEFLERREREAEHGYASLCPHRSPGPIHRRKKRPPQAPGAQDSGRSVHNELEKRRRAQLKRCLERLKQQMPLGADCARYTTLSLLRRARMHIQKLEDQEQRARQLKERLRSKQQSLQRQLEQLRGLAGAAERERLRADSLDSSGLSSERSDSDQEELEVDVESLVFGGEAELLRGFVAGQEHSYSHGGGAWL

The variants in one experiment derive from B1. The conditions noted are these: with pdcd6_human PDCD6, O75340.
pdcd6_human PDCD6, O75340, sequence (O75340 whole entry): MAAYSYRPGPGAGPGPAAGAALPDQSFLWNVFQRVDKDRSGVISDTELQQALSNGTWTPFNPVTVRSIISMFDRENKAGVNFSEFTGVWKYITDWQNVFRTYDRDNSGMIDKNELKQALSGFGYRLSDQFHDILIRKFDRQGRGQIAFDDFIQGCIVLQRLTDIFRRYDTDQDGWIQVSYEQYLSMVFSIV
In the case of N550S, the “effect of a mutation on the interaction” value is given as “with no effect”.

As for A309T, the “effect of a mutation on the interaction” value is on record as “with no effect”.

Regarding G429S, the “effect of a mutation on the interaction” value was “with no effect”.

The variants in a further experiment derive from B2. The conditions noted are these: with atl4_human ADAMTSL4, Q6UY14.
As to R171C, the “effect of a mutation on the interaction” value was “with no effect”.

The variants in another experiment derive from B3. The conditions noted are these: with cdc45_human CDC45, O75419.
On to R348K, for which the “effect of a mutation on the interaction” value is “with no effect”.

Turning to H57Q, the “effect of a mutation on the interaction” value is “with no effect”.

As for C236R, the “effect of a mutation on the interaction” value was “with no effect”.

A244P: the “effect of a mutation on the interaction” value was “with no effect”.

Variants of B4 are the subject of another experiment. The conditions noted are these: with leng1_human LENG1, Q96BZ8.
Take C62W: the “effect of a mutation on the interaction” value is recorded as “with no effect”.

In a further experiment the parent is B5. The conditions noted are these: with grm2b_human GRAMD2B.
Consider Q126K, for which the “effect of a mutation on the interaction” value is “with no effect”.

The variants in the next experiment derive from B6. The conditions noted are these: with mad3_human MXD3, Q9BW11.
R74Q: the “effect of a mutation on the interaction” value was “with no effect”.

Take A115T: the “effect of a mutation on the interaction” value is listed as “with no effect”.
